Experimental data from patent US20230322924A1 (Janssen / Centocor, published 2023).

What was measured:
[1] = target: T1, Human CD33 full length (human, UniProt P20138 18-364); test: flow cytometry on HEK293F cells expressing human CD33
T1 construct: also called huCD33
Description: (§1) The purified antibodies were assessed for binding to stably transfected HEK293F cells expressing human CD33 or cyno CD33 (generation described above) along with the parental HEK293F as negative control. Cells were harvested from tissue culture flasks using non-enzymatic dissociation buffer (Thermo Scientific). The flasks were rinsed twice with PBS and dissociation buffer was added to the flask, and the flask was incubated for 10 minutes at 37° C. until the cells became non-adherent. The cells were centrifuged at 300 g for 5 minutes and resuspended at 1.0×10⁶ cells/ml in staining buffer (Becton Dickinson; Franklin Lakes, NJ). 50,000 cells/well of each cell type was plated in 50 μl of staining buffer in round bottom plates (Becton Dickinson). […] 100 μl staining buffer was added to all wells of each plate, the plates were spun at 300 g for 5 min, the buffer was removed, 200 μl staining buffer was added to all wells of each plate, the plates were spun at 300 g for 5 min, and the buffer was removed. 50 μl of 2 μg/ml of Goat-anti-human Fc AF647 secondary antibody (Jackson Immunoresearch; West Grove, PA) was added to all wells of the plates, and the plates were incubated for 30 min at 4° C. 100 μl staining buffer was added to all wells of the plates, the plates were spun at 300 g for 5 min, and the buffer was removed. 200 μl running buffer (running buffer is Staining buffer, 1 mM EDTA, 0.1% Pluronic Acid) was added to all wells of the plates, the plates were spun at 300 g for 5 min, and the buffer was removed. 30 μl running buffer containing Sytox Green live/dead dye (ThermoFisher) was added to all wells with cells and the plates were read on an iQue IntelliCyt flow cytometer. Cells were gated on forward vs. side scatter to eliminate debris, then on singlets and then on live cells which excluded the Sytox stain. Antibody binding was assessed by the mean fluorescence intensity in the AF647 channel.
(§2) The OmniMouse panel (8 mAbs total) was generated separately and characterized further for binding to cells.

[2] = target: T2, Cyno CD33 full length (cynomolgus monkey); test: flow cytometry on HEK293F cells expressing cyno CD33
T2 construct: also called cyCD33
Description: as §1, §2

[3] = target: T3, Human CD33 ECD-HSA (human); test: ProteOn SPR, mAb captured on anti-human Fc, antigen as analyte
T3 construct: CD33 ECD fused at the C-terminus to monomeric HSA (C58S) and a six-histidine tag; also called C33W2; huCD33 ECD-HSA
Description: (§3) The panel of mAbs was then further characterized for full affinity analysis as well as epitope binning. The binding of anti-CD33 mAbs to recombinant human CD33 ECD-HSA (C33W2) and cyno CD33 ECD-HSA (C33W1) was measured by ProteOn SPR (Bio-Rad). […] Different mAbs were captured on the anti-human Fc IgG surface at 0.25 or 0.5 μg/ml (160-300 RU) in vertical ligand orientation, with the 6th ligand channel as no ligand surface control. Human and cyno CD33-HSA proteins at 0.3 μM concentration in 3-fold dilution series of 5 concentrations flew in as analyte to bind to captured mAbs in the horizontal orientation. A buffer sample was also injected in the 6th channel to monitor the dissociation of captured mAb and baseline stability. […] The raw biding data were processed by double referencing after subtracting the response data from: 1) the inter-spot to correct for the non-specific interactions between the Ag and the empty chip surface; 2) the buffer channel to correct for baseline drifting due to the dissociation of captured mAb surface over time. The processed data at all antigen concentrations for each mAb were globally fit to a 1:1 simple Langmuir binding model to extract estimates of the kinetic (kₒₙ, koff) and affinity (Kd) constants.

[4] = target: T4, Cyno CD33 ECD-HSA (cynomolgus monkey); test: as above
T4 construct: Cyno CD33 ECD fused to HSA and a six-histidine tag; also called C33W1
Description: as §3

[5] = target: T5, Cyno CD33 ECD-HSA (cynomolgus monkey); test: ProteOn SPR, mAb captured by anti-human Fc, 1:1 Langmuir fit
T5 construct: Cyno CD33 extracellular domain fused to monomeric human serum albumin and a six-histidine tag; also called C33W1

[6] = target: Human CD33 ECD-HSA (human); test: as above
[7] = target: T6, Cyno CD33 full length, expressed on HEK293F cells (cynomolgus monkey); test: flow cytometry, HEK293F cells expressing cyno CD33
T6 construct: HEK293F cells transduced with lentivirus containing full length cyno CD33 (Genbank XP_005590138.1); also called cyCD33

[8] = target: Human CD33 ECD-HSA (human); test: SPRi off-rate screen (IBIS MX96), mAb captured by anti-human Fc; column head prints KD
[9] = target: T5, Cyno CD33 ECD-HSA; test: SPRi off-rate screen (IBIS MX96), mAb captured by anti-human Fc; column head prints Cyno CD33 binding KD
[10] = target: T7, Human CD33 full length, expressed on HEK293F cells (human, UniProt P20138 18-364); test: flow cytometry, HEK293F cells expressing human CD33
T7 construct: HEK293F cells transduced with lentivirus containing full length human CD33; also called huCD33
T7 sequence (P20138 18-364 limits assumed): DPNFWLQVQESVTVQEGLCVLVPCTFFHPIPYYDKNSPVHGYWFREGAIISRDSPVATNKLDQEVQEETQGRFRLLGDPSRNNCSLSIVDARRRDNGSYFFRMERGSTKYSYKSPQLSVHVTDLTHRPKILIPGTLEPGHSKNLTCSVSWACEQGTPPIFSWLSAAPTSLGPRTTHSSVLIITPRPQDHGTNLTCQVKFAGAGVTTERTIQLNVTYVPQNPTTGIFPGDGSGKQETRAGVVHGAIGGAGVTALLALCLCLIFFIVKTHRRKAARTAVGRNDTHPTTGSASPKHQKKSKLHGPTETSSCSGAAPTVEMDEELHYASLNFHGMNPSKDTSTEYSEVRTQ

T1 sequence (P20138 18-364 limits assumed): as above

Binder	Kd [5]	koff [5]	kon [5]	Kd [6]	koff [6]	kon [6]	MFI at 0 nM mAb (background) [7]	MFI at 0.6 nM mAb [7]	MFI at 6 nM mAb [7]	MFI at 60 nM mAb [7]	koff [8]	koff [9]	MFI at 0 nM mAb (background) [10]	MFI at 0.6 nM mAb [10]	MFI at 6 nM mAb [10]	MFI at 60 nM mAb [10]	other results
C33B911 (antibody, V domains shown, OMNIMouse-derived anti-CD33 mAb; same V regions as C33B903; also called C33H251/C33L117; C33F549) VH: EVQLVESGGGLVQPGRSLRLSCAASGFTFDDYAMHWVRQAPGKGLEWVSGIGWSGGSIVYADSVKGRFKISRDNAKNSLYLQMNSLRAEDTALYYCAKDSPYGDFFDYWGQGTLVTVSS VL: not shown	–	–	–	–	–	–	–	–	–	–	–	–	–	–	–	–	MFI at 0 nM (background) [1]: 114 MFI; MFI at 0.6 nM [1]: 13500 MFI; MFI at 6 nM [1]: 100000 MFI; MFI at 60 nM [1]: 238000 MFI; MFI at 0 nM (background) [2]: 97.9 MFI; MFI at 0.6 nM [2]: 1940 MFI; MFI at 6 nM [2]: 7730 MFI; MFI at 60 nM [2]: 17000 MFI; Kd [3]: 0.0378 nM; koff [3]: 4.14e-05 s⁻¹; kon [3]: 1.1e+06 M⁻¹ s⁻¹; Kd [4]: 1 nM; koff [4]: 0.00115 s⁻¹; kon [4]: 1.15e+06 M⁻¹ s⁻¹
C33B80 (antibody, IgG1, V domains shown, huIgG1 F405L; also called C33F85; C33H76/C33L39) VH: EVQLLESGGGLVQPGGSLRLSCAASGFTFNYAMSWVRQAPGKGLEWVSAISGSGGSTYYADSVKGRFTISRDISKNTLYLQMNSLRAEDTAVYYCARTYNSGYYDGDFDYWGQGTLVTVSS VL: QSALTQPASVSGSPGQSIPISSTGTSSDDGKNNIVSWYQQHPGKAPKLMIYKDSKRPSGVSNRFSGSKSGNTASLTISGLQADDEADYHCCSYAGASNHVVFGGGTKLTVL	0.527 nM	0.000259 s⁻¹	492000 M⁻¹ s⁻¹	1.32 nM	0.000425 s⁻¹	323000 M⁻¹ s⁻¹	82.4 MFI	109 MFI	249 MFI	4610 MFI	0.000384 s⁻¹	0.000266 s⁻¹	88.9 MFI	115 MFI	410 MFI	5800 MFI	–
C33B913 (antibody, V domains shown, OMNIMouse-derived anti-CD33 mAb; same V regions as C33B905; also called C33H253/C33L119; C33F551) VH: EVQLLESGGGLVQPGGSLKLSCTASGFTFRSYAMSWVRQAPGKGLEWVSAINGYGDGRYYADSVKGRFTISRDNSKNTLYLQMNSLRAEDTAVYSCAKDQGFGELFFDYWGQGTLVTVSS VL: not shown	–	–	–	–	–	–	–	–	–	–	–	–	–	–	–	–	MFI at 0 nM (background) [1]: 128 MFI; MFI at 0.6 nM [1]: 205000 MFI; MFI at 6 nM [1]: 409000 MFI; MFI at 60 nM [1]: 519000 MFI; MFI at 0 nM (background) [2]: 106 MFI; MFI at 0.6 nM [2]: 35200 MFI; MFI at 6 nM [2]: 36900 MFI; MFI at 60 nM [2]: 40700 MFI; Kd [3]: 0.969 nM; koff [3]: 0.00064 s⁻¹; kon [3]: 660000 M⁻¹ s⁻¹; Kd [4]: 0.12 nM; koff [4]: 0.000308 s⁻¹; kon [4]: 2.56e+06 M⁻¹ s⁻¹
C33B124 (antibody, IgG1, V domains shown, huIgG1 F405L; also called C33F129; C33H73/C33L32) VH: EVQLLESGGGLVQPGGSLRLSCAASRFTFSSYAMTWVRQAPGKGLEWVSTINISGGSTYYADSVKGRFTISRDNSKNTLYLQMNSLRAEDTAVYYCTKGGYSSGPFDYWGQGTLVSVSS VL: SYELTQPPSVSVSPGQTASITCSGDKLGDKYVRWYQQKTGQSPVLVMYQDSKRPSGIRERFYGSNSGNTATPTISGTQAVDEAEYYCQAWDSSTGVVFGGGTKLTVL	1.01 nM	0.000472 s⁻¹	467000 M⁻¹ s⁻¹	0.35 nM	0.000124 s⁻¹	357000 M⁻¹ s⁻¹	98.4 MFI	77.3 MFI	132 MFI	593 MFI	0.000238 s⁻¹	0.000477 s⁻¹	172 MFI	90.3 MFI	126 MFI	798 MFI	–
C33B52 (antibody, IgG1, V domains shown, huIgG1 F405L; also called C33F57; C33H42/C33L8) VH: QLQLQESGPGLVNPSETLSHTCTVSGGSISSSSHYWGWIRQPPGKGLEWIGKIYYSGNTYYNPSLKSRVTISIDTSKNQFSLKMSSVTAADTAVYYCARLADVVVVPAARYFDSWGQGTLVTVSS VL: SYELTQPPSVSVSPGQTASIICSGDKLGNKYACWYQQKPGQSPVLVIYQDSKRPSGIPERFSGSNSGNTATLTISGTQAVDEADYYCQAWDSSTYVFGTGTKVTVL	4.74 nM	0.00148 s⁻¹	313000 M⁻¹ s⁻¹	19.2 nM	0.00396 s⁻¹	206000 M⁻¹ s⁻¹	75.2 MFI	2060 MFI	8440 MFI	12600 MFI	0.00313 s⁻¹	0.0012 s⁻¹	82.5 MFI	6750 MFI	46300 MFI	197000 MFI	–
C33B63 (antibody, IgG1, V domains shown, huIgG1 F405L; also called C33F68; C33H51/C33L34) VH: QLQLQESGPGLVKPSETLSLTCTVSGGSISTGRYYWGWIRQPPGKGVIWIGNIYYSGNTYYNPSLKSRVTISVDTSKNQFSLKLNSVTAADTAVYYCARLGSLVVVPAAMSFDYWGQGTLVTVSS VL: SYELTQPPSVSVSPGQTASITCSGDKLGDKYACWYQLRPGQSPILVIYQDSNRPSGIPERFSGSNSGNTATLTISGTQAMDEADYYCQAWDSSTWVFGGGTKLTVL	1.22 nM	0.00088 s⁻¹	723000 M⁻¹ s⁻¹	7.01 nM	0.00374 s⁻¹	533000 M⁻¹ s⁻¹	87.9 MFI	2880 MFI	11600 MFI	18300 MFI	0.00457 s⁻¹	0.000947 s⁻¹	86.3 MFI	9670 MFI	62200 MFI	248000 MFI	–
C33B87 (antibody, IgG1, V domains shown, huIgG1 F405L; also called C33F92; C33H87/C33L35) VH: not shown VL: SYELTQPPSVSVSPGQTASITCSGDKLGNKYASWYQQKPGQSPVLVIYQDTKRPSGIPERVSGSNSGNTATLTISGTQAMDEADYHCQAWDSSTVVFGGGTKLTVL	0.236 nM	0.000264 s⁻¹	1.12e+06 M⁻¹ s⁻¹	0.6 nM	0.000432 s⁻¹	720000 M⁻¹ s⁻¹	103 MFI	3270 MFI	12700 MFI	19600 MFI	0.000352 s⁻¹	0.000228 s⁻¹	73.7 MFI	12500 MFI	79500 MFI	242000 MFI	–
C33B77 (antibody, IgG1, V domains shown, huIgG1 F405L; also called C33F82; C33H72/C33L40) VH: not shown VL: SYELTQPPSVSVSPGQTASITCSGNKLGAKFASWYQQKPGQSPVLVIYQDNKRPSGIPERFSGSNSGNTATLTISGTQAVDEADYYCQAWDSSTVVFGGGTKLTVL	0.247 nM	0.000266 s⁻¹	1.08e+06 M⁻¹ s⁻¹	0.32 nM	0.000262 s⁻¹	828000 M⁻¹ s⁻¹	85.2 MFI	3600 MFI	11700 MFI	17500 MFI	0.000337 s⁻¹	0.000418 s⁻¹	69.5 MFI	11500 MFI	88700 MFI	242000 MFI	–
